Measured values as given in the supplement of paper PMC12042874.
± gives the uncertainty stated by the source.

assay: amyloid nucleation score (Sup35N fusion, yeast selection) (log enrichment); library NNK3; higher = more nucleation; inactive = no reads after selection
In short: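 The nucleation score, computed with DiMSum, is the log enrichment of output over input reads, centred on the mode score of non-aggregating sequences. Sequences with under 100 input reads were dropped. Reads were generated by Illumina sequencing of plasmid inserts from psi-negative yeast with Sup35N fused to peptides of 20 random codons, induced with 100 μM copper sulfate for 24 hours and grown 7 days at 30°C on medium lacking adenine and uracil.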

| Substance | amyloid nucleation score |
| --- | --- |
| MSLNLHLKQGVFKGHTVSAL | inactive |
| MSLNNGGSGSCVCPFR | inactive |
| MSMFYSNRHNPVKRTSGTGL | inactive |
| MSMLYSGWAYELTLHYMRPA | inactive |
| MSMYVTSF | inactive |
| MSNRHWM | inactive |
| MSPIDGDDSG | inactive |
| MSPPCFNRMSYIMLPWFVML | inactive |
| MSSSIILWNFCNMDRCSLLV | -0.084 ± 0.49 |
| MSTMFVPLSCFSENKRQTLS | inactive |
| MSVRGHSSTVVYLCREPGLK | 0.402 ± 0.38 |
| MSYMMSSTPSVFMACLGDS | inactive |
| MTLSVRMAEEQN | inactive |
| MTLWDWDYRLIVRIQLRSTQ | inactive |
| MTSFIFDVFCSCSCLYQRPL | inactive |
| MTSFVWSCWRHYYRSRIVVV | inactive |
| MTSMLVTMMPCWVMRFVVWE | inactive |
| MVFLVVVWFVKNGWKCVYGS | inactive |
| MVFQYRYFSLLLVWSNCSGA | inactive |
| MVGWVWERMRHAPWE | inactive |
| MVHPDTRKRQTRGTG | inactive |
| MVKTFVLMTLHLGLMVRFLF | inactive |

| Substance | amyloid nucleation score |
| --- | --- |
| MVLNERFFYTSTTGVICVTC | 1.73 ± 0.064 |
| MVNTM | inactive |
| MVREFTQNSKVCSTVLCDGV | inactive |
| MVWKHYTSLNRDCVFNICCW | 1.78 ± 0.063 |
| MWEKFQWCNIINGINSVCVV | 0.962 ± 0.16 |
| MWLKPCRGKIKMRGYFSLNG | inactive |
| MWSVLIRSTIDYAVPNWSRF | inactive |
| MWWGWKRFHSMRNYDAYIQM | inactive |
| MYKFCSY | inactive |
| MYNSTLSWRL | inactive |
| MYPLTVWIVLRLGDSFLK | inactive |
| MYQLLMFAYVT | inactive |
| MYQVDMMLCTITDWVGSNWY | 0.666 ± 0.27 |
| MYREFYLNDQFNRPFPQSMD | inactive |
| MYRITQGHLR | inactive |
| MYSMVGNLTRSWEGIGLGLM | inactive |
| MYTTDYVYRVLVSHFRVPRM | inactive |
| NAFICGSRYQVVKDSDDHCM | inactive |
| NAGYCVRTRSLGESLSIVRK | inactive |
| NALLAFPYQGSMHKCGLGRY | inactive |
| NASCGDNVLLYLFKMTFCLG | 0.139 ± 0.25 |
| NCHSFVYYSMLGVSLSISGN | 2.29 ± 0.059 |

| Substance | amyloid nucleation score |
| --- | --- |
| NCRLEESGLVTVNCVGYWWD | inactive |
| NCVYVLESD | -0.075 ± 0.32 |
| NCYRRTLHSSWREWIWPIGC | -0.062 ± 0.82 |
| NDFLDVGSVSSYVNTQLPMS | -0.086 ± 0.8 |
| NDVPLDRQLVDGYIASARFG | inactive |
| NEIQVKQRYVPPVSVSFVWW | 1.59 ± 0.086 |
| NELCLVMIKKDVSMRVWLES | inactive |
| NELCVTFLGCRPYVPA | -0.469 ± 1.1 |
| NEMHFLS | inactive |
| NEMQQYSHAPSPSVVWNAGF | inactive |
| NESHILPVVVMDCLRTFPTE | inactive |
| NESLIKVCSALILRKNMCGP | inactive |
| NFATRDNWYRVTQTLEDWIK | inactive |
| NFHQMW | inactive |
| NFIALSLFKLVCSAEICWLN | 0.617 ± 0.39 |
| NFLVVSNRYLYMVPNGHIKL | 2.96 ± 0.051 |
| NFRCDICLPNLTRY | 0.313 ± 0.16 |
| NFSETSAKYHVTSRGFSSSR | 0.456 ± 0.21 |
| NFVDVRIKFTLTADLGHNSG | 0.756 ± 0.21 |
| NFVGTICLCLSYYVSVNSCC | inactive |
